Assay results from patent US20060040881.

Tested on: Coagulation factor IX/IXa (Macaca fascicularis)
Assay: inhibition
Details: guggaCUaUaCCgCgUaaUgCuGcCUccacT; lower case 2'-OMe, upper case C/U 2'-F, upper case A/G 2'-OH, 3' idT; concentration inhibiting about 90% of plasma FIX activity (APTT 1.6-fold); >95% at 10-12 ug/mL; cynomolgus plasma; text cites Apt39 as SEQ ID NO:88

In the case of GUGGACUAUACCGCGUAAUGCUGCCUCCAC [Apt39], the activity is reported as 6 µg/mL.
